Laboratory results published in US11548923B2, “Peptide compositions and methods of use thereof for disrupting TEAD interactions” (Fred Hutchinson Cancer Center, priority 2017, dated 2023).

Columns and labels:
[1] = SYPRO Orange thermal shift (melting) assay; assay type: physicochemical; conditions: heating from 20° C. to 95° C.
Protocol: Thermal Shift Assay. Protein melting temperature (Tm) determination can be performed by monitoring protein unfolding using SYPRO Orange dye (Molecular Probes). In brief, 0.1 mg/mL protein sample in 20 μL total volume PBS buffer can be mixed with 2 μL of 10×SYPRO Orange dye. Dye intercalation into the hydrophobic protein core following protein unfolding was assayed using the C1000 Touch Thermal Cycler with CFX96 Deep Well Real-Time System (BioRad). Samples were heated from 20° C. to 95° C. with stepwise increments of 0.5° C. per minute and a 5 see hold step for every point, followed by fluorescence reading. Tm were calculated by analyzing the derivatives of Relative florescence Units (RFU).
Protein secondary structures were assessed using Circular Dichroism (CD). CD spectra were measured with a Jasco J-720W spectropolarimeter using a 1.0 mm path length cell. Protein samples in 10 mM phosphate buffer (pH=7.4) were at 25-30 μM protein concentration. Samples were analyzed at wavelength ranges of 260-190 nM. Data were expressed in terms of relative ellipticity; (mdeg). […] Samples were heated from 20° C. to 95° C. with stepwise increments of 0.5° C. per minute and a 5 sec hold step for every point, followed by fluorescence reading. Tm was calculated by analyzing the derivatives of Relative florescence Units (RFU). […]

[2] = system: HeLa cells expressing the HaloEnzyme; assay type: cell-based; conditions: 1 μM HT-labeled peptide, 4 hours
Protocol: HeLa cells expressing the HaloEnzyme (a modified bacterial haloalkane dehalogenase, further modified to target to the cytosol-facing side of the outer mitochondrial membrane) were grown in 24 well dishes until ˜60% confluent. […] After incubation, cells were rinsed and incubated with Opti-MEM for 30 minutes, and were then incubated with 5 μM HT-TAMRA ligand (Promega G8251) for 30 minutes. An additional control with no HT-TAMRA was tested. After this incubation, cells were rinsed with PBS and then imaged on a fluorescent microscope in FITC/green (all cells) and TRITC/red (HT-TAMRA accumulation) channels.
FIG. 28 illustrates cell-by-cell quantitation of average fluorescence in the red channel of cells in a CAPA.

[3] = target: T1, biotinylated TEAD (Homo sapiens, UniProt P28347); assay: Surface plasmon resonance (SPR) binding of soluble peptides to captured biotinylated TEAD; conditions: biotinylated TEAD immobilized on an SPR chip, read-out: dissociation constant (KD)
T1 construct: GST; made in house; host or cells: Hi5 insect cells (baculovirus, BacMagic, pIEX-BAC3)
T1 sequence (P28347 209-426): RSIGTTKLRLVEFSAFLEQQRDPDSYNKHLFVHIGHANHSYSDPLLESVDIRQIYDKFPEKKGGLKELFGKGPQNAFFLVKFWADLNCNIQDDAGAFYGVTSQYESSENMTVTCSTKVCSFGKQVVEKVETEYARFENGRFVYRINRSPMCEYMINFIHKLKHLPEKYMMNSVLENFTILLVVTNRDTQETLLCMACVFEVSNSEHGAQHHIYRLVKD

B1: Human siderocalin: Human siderocalin (HuScn), control protein in SYPRO Orange melting assay (protein, UniProt P80188 21-198, looked up)
Neutrophil …: QDSTSDLIPAPPLSKVPLQQNFQDNQFQGKWYVVGLAGNAILREDKDPQKMYATIYELKEDKSYNVTSVLFRKKKCDYWIRTFVPGCQPGEFTLGNIKSYPGLTSYLVRVVSTNYNQHAMVFFKKVSQNREYFKITLYGRTKELTSELKENFIRFSKSLGLPENHIVFPVPIDQCIDG
- melting temperature [1]: 79 °C

B2: GSGDCLPHLKRCKADNDCCGKKCKRRGTNAEKRCREPKSSDKTHTPDEYIERAKECCKKQDIQCCLRIFDESKDPNVMLICLFCW (peptide)
chain: GSGDCLPHLKRCKADNDCCGKKCKRRGTNAEKRCREPKSSDKTHTPDEYIERAKECCKKQDIQCCLRIFDESKDPNVMLICLFCW
- cell penetration [2]: high cell penetration

B3: Siderocalin-fused YAP: YAP (50-171) produced as a soluble siderocalin fusion (protein)
chain: QDSTSDLIPAPPLSKVPLQQNFQDNQFQGKWYVVGLAGNAILREDKDPQKMYATIYELKEDKSYNVTSVLFRKKKCDYWIRTFVPGCQPGEFTLGNIKSYPGLTSYLVRVVSTNYNQHAMVFFKKVSQNREYFKITLYGRTKELTSELKENFIRFSKSLGLPENHIVFPVPIDQCIDGAGHQIVHVRGDSETDLEALFNAVMNPKTANVPQTVPMRLRKLPDSFFKPPEPKSHSRQASTDAGTAGALTPQHVRAHSSPASLQLGAVSPGTLTPTGVVSGPAATPTAQHLRQSSFEIPDDV
modifications: left off: small tags and cut ends
- Kd [3]: 570 nM
